Experimental data: US20220387578A1 (VANDERBILT UNIVERSITY, published 2022)
Numbering of substitutions follows the chain as printed. Names and notes keep the numbering of the source.

B1: rFluA-20 heavy chain mutant Y34A (antibody, V domains shown)
VH: QVQLQESGPGLVKPSETLSLTCSVSGVSVTSDIAYWTWIRQPPGKGLEWIGYIFYNGDTNYNPSLKSRVTMSIDTSKNEFSLRLTSVTAADTAVYFCARGTEDLGYCSSGSCPNHWGQGTLVTVSS
VL: DIQMTQSPSSLSASIGDRVTITCRPSQNIRSFLNWFQHKPGKAPKLLIYAASNLQSGVPSRFSGSGSGTEFTLTIRSLQPEDFATYYCQQSYNTPPTFGQGTKVEIK
B2: rFluA-20 heavy chain mutant Y100aA (antibody, V domains shown)
VH: B1 VH with A34Y, Y106A
VL: B1 VL
B3: rFluA-20 heavy chain mutant T96A (antibody, V domains shown)
VH: B1 VH with A34Y, T101A
VL: B1 VL
B4: rFluA-20 heavy chain mutant E97A (antibody, V domains shown)
VH: B1 VH with A34Y, E102A
VL: B1 VL
B5: rFluA-20 light chain mutant N53A (antibody, V domains shown)
VH: B1 VH with A34Y
VL: B1 VL with N53A

Target: H3 HA A/Hong Kong/1/1968 (H3N2), recombinant soluble trimer (influenza A virus, UniProt Q91MA7 17-530)

Row | Binder | EC50
1 | B1 | 0.07 µg/mL
2 | B2 | 0.07 µg/mL
3 | B3 | 0.1 µg/mL
4 | B4 | 0.07 µg/mL
5 | B5 | 0.06 µg/mL
